Assay results: patent US20230242635A1 (published 2023)

How the values were obtained:
[1] = target: canine FcRn complex (FcRn-α subunit and β-microglobulin), biotin labeled by BirA, captured on SA chip (Example 5) (canine); assay: SPR (Biacore), biotinylated FcRn captured on SA chip, IgG flowed, pH 6, 15 C
[2] = target: canine FcRn complex (FcRn-α subunit and β-microglobulin), biotin labeled by BirA, captured on SA chip (Example 5) (canine); assay: SPR (Biacore), biotinylated FcRn captured on SA chip, IgG flowed, pH 7.4, 15 C
[3] = target: T1, canine FcRn complex (FcRn-α subunit and β-microglobulin), biotin labeled by BirA, captured on SA chip … (canine, UniProt A0A8I3PFR8 25-296, biotin label by BirA enzymatic biotinylation (BAP tag)); assay: SPR (Biacore), biotinylated FcRn captured on SA chip, IgG flowed, pH 6, 15 C
[4] = target: T1, canine FcRn complex (FcRn-α subunit and …); assay: SPR (Biacore), biotinylated FcRn captured on SA chip, IgG flowed, pH 7.4, 15 C

T1 sequence (A0A8I3PFR8 entry or part of it, one chain of several): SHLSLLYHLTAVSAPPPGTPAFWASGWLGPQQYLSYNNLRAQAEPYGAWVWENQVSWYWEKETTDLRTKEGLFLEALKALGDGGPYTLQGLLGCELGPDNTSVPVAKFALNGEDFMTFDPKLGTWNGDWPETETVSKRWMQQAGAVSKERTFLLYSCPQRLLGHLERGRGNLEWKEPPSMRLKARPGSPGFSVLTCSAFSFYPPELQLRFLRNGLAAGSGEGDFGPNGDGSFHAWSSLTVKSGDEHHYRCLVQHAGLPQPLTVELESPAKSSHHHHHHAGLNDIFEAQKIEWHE

B1: caninized anti-IL31 antibody 11E12 (mAb1 of Table 5), canine IgGB, N434H (antibody, part only; not given: light chain, part only)
heavy: EVQLVQSGAEVKKPGASVKVSCKTSGYTFKYYDINWVRQAPGAGLDWMGWIFPGDGGTKYNETFKGRVTLTADTSTSTAYMELSSLRAGDIAVYYCARGGTSVIRDAMDYWGQGTLVTVSSASTTAPSVFPLAPSCGSTSGSTVALACLVSGYFPEPVTVSWNSGSLTSGVHTFPSVLQSSGLYSLSSMVTVPSSRWPSETFTCNVAHPASKTKVDKPVPKRENGRVPRPPDCPKCPAPEMLGGPSVFIFPPKPKDTLLIARTPEVTCVVVDLDPEDPEVQISWFVDGKQMQTAKTQPREEQFNGTYRVVSVLPIGHQDWLKGKQFTCKVNNKALPSPIERTISKARGQAHQPSVYVLPPSREELSKNTVSLTCLIKDFFPPDIDVEWQSNGQQEPESKYRTTPPQLDEDGSYFLYSKLSVDKSRWQRGDTFICAVMHEALHHHYTQESLSHSPGK
Kd [1]: 1 nM
Kd [2]: 83900 nM

B2: caninized anti-IL31 antibody 34D03 (mAb1), canine IgGB, N434I (antibody)
chain 1: EVQLVESGGDLVKPGGSLRLSCVASGFTFSNYGMSWVRQAPGKGLQWVATISYGGSYTYYPDNIKGRFTISRDNAKNTLYLQMNSLRAEDTAMYYCVRGYGYDTMDYWGQGTLVTVSSASTTAPSVFPLAPSCGSTSGSTVALACLVSGYFPEPVTVSWNSGSLTSGVHTFPSVLQSSGLYSLSSMVTVPSSRWPSETFTCNVAHPASKTKVDKPVPKRENGRVPRPPDCPKCPAPEMLGGPSVFIFPPKPKDTLLIARTPEVTCVVVDLDPEDPEVQISWFVDGKQMQTAKTQPREEQFNGTYRVVSVLPIGHQDWLKGKQFTCKVNNKALPSPIERTISKARGQAHQPSVYVLPPSREELSKNTVSLTCLIKDFFPPDIDVEWQSNGQQEPESKYRTTPPQLDEDGSYFLYSKLSVDKSRWQRGDTFICAVMHEALHIHYTQESLSHSPGK
chain 2: EIVMTQSPASLSLSQEEKVTITCKASQSVSFAGTGLMHWYQQKPGQAPKLLIYRASNLEAGVPSRFSGSGSGTDFSFTISSLEPEDVAVYYCQQSREYPWTFGQGTKLEIK
Kd [3]: 77.1 nM
Kd [4]: 19600 nM

B3: caninized anti-IL31 antibody 34D03 (mAb1), canine IgGB, N434L (antibody)
chain 1: EVQLVESGGDLVKPGGSLRLSCVASGFTFSNYGMSWVRQAPGKGLQWVATISYGGSYTYYPDNIKGRFTISRDNAKNTLYLQMNSLRAEDTAMYYCVRGYGYDTMDYWGQGTLVTVSSASTTAPSVFPLAPSCGSTSGSTVALACLVSGYFPEPVTVSWNSGSLTSGVHTFPSVLQSSGLYSLSSMVTVPSSRWPSETFTCNVAHPASKTKVDKPVPKRENGRVPRPPDCPKCPAPEMLGGPSVFIFPPKPKDTLLIARTPEVTCVVVDLDPEDPEVQISWFVDGKQMQTAKTQPREEQFNGTYRVVSVLPIGHQDWLKGKQFTCKVNNKALPSPIERTISKARGQAHQPSVYVLPPSREELSKNTVSLTCLIKDFFPPDIDVEWQSNGQQEPESKYRTTPPQLDEDGSYFLYSKLSVDKSRWQRGDTFICAVMHEALHLHYTQESLSHSPGK
chain 2: EIVMTQSPASLSLSQEEKVTITCKASQSVSFAGTGLMHWYQQKPGQAPKLLIYRASNLEAGVPSRFSGSGSGTDFSFTISSLEPEDVAVYYCQQSREYPWTFGQGTKLEIK
Kd [3]: 14.3 nM
Kd [4]: 997 nM

B4: caninized anti-IL31 antibody 34D03 (mAb1), canine IgGB, N434K (antibody)
chain 1: EVQLVESGGDLVKPGGSLRLSCVASGFTFSNYGMSWVRQAPGKGLQWVATISYGGSYTYYPDNIKGRFTISRDNAKNTLYLQMNSLRAEDTAMYYCVRGYGYDTMDYWGQGTLVTVSSASTTAPSVFPLAPSCGSTSGSTVALACLVSGYFPEPVTVSWNSGSLTSGVHTFPSVLQSSGLYSLSSMVTVPSSRWPSETFTCNVAHPASKTKVDKPVPKRENGRVPRPPDCPKCPAPEMLGGPSVFIFPPKPKDTLLIARTPEVTCVVVDLDPEDPEVQISWFVDGKQMQTAKTQPREEQFNGTYRVVSVLPIGHQDWLKGKQFTCKVNNKALPSPIERTISKARGQAHQPSVYVLPPSREELSKNTVSLTCLIKDFFPPDIDVEWQSNGQQEPESKYRTTPPQLDEDGSYFLYSKLSVDKSRWQRGDTFICAVMHEALHKHYTQESLSHSPGK
chain 2: EIVMTQSPASLSLSQEEKVTITCKASQSVSFAGTGLMHWYQQKPGQAPKLLIYRASNLEAGVPSRFSGSGSGTDFSFTISSLEPEDVAVYYCQQSREYPWTFGQGTKLEIK
Kd [3]: 9.11 nM
Kd [4]: 7.86 nM
